Reference: paper PMC3022821, “Glycogen synthase kinase-3β inactivation inhibits tumor necrosis factor-α production in microglia by modulating nuclear factor κB and MLK3/JNK signaling cascades” (Journal of Neuroinflammation, 2010)

Biological target: the molecule itself
Experiment: immunoprecipitation and non-reducing SDS-PAGE; BV-2 lysates, IP with goat anti-MLK3; precipitates separated by SDS-PAGE without DTT; blot with rabbit anti-MLK3; disulfide-linked dimer; cells with or without LPS (100 ng/ml)

B1: Mixed lineage kinase 3 (MLK3) (natural protein, mouse (endogenous in BV-2), UniProt Q80XI6 1-850, looked up)
chain: MEPLKNLFLKSPLGSWNGSGSGGGGGTGGVRPEGSPKATAAYANPVWTALFDYEPNGQDELALRKGDRVEVLSRDAAISGDEGWWAGQVGGQVGIFPSNYVSRGGGPPPCEVASFQELRLEEVIGIGGFGKVYRGSWRGELVAVKAARQDPDEDISVTAESVRQEARLFAMLAHPNIIALKAVCLEEPNLCLVMEYAAGGPLSRALAGRRVPPHVLVNWAVQIARGMHYLHCEALVPVIHRDLKSNNILLLQPIEGDDMEHKTLKITDFGLAREWHKTTQMSAAGTYAWMAPEVIKASTFSKGSDVWSFGVLLWELLTGEVPYRGIDCLAVAYGVAVNKLTLPIPSTCPEPFAQLMADCWAQDPHRRPDFASILQQLEALEAQVLREMPRDSFHSMQEGWKREIQGLFDELRAKEKELLSREEELTRAAREQRSQAEQLRRREHLLAQWELEVFERELTLLLQQVDRERPHVRRRRGTFKRSKLRARDGGERISMPLDFKHRITVQASPGLDRRRNVFEVGAGDSPTFPRFRAIQLEPTESGQTWGRQSPRRLEDSSNGERRACWAWGPSSPKPGEAQNGRRRSRMDEATWYLDSDDSSPLGSPSTPPALNGNPPRPSPEPEEPRRAGPTERGNSSGTPKLIQRALLRGTALLASLGLGRDLQPPGGLSRERGESPTAPPPAQMPSPCPPELPSTPLIRLSQTTPDAHSSPTPGPLLLDLGVPSGQPSAKSPRREETRGRTVSPPPGISRSAPGTPGTPRSPPLGLISRPRPSPLRSRIDPWSFVSAGPRPSPLPSPQPAPRRAPWTLFPDSDPFWDSPPANPFRGGSQDCRTQTKDMGAQAPWAPEAGP
notes: Mixed lineage kinase 3 (MLK3), endogenous in murine BV-2 microglial cells; monomer of 105 kDa on SDS-PAGE; Precipitated with a goat anti-MLK3 antibody (Santa Cruz Biotechnology); the dimer is disulfide-linked and is seen only without DTT; source: endogenous, BV-2 cell lysate
  stoichiometry N: 2
